In patent US20240409645A1 (DUALYX, published 2024):
Changes are numbered by the printed parent chain.

T1: human IL-2Rα (human, UniProt P01589 22-240, limits assumed)
T1 construct: recombinant protein; also called hu IL-2R; human IL-2Ra
T1 sequence: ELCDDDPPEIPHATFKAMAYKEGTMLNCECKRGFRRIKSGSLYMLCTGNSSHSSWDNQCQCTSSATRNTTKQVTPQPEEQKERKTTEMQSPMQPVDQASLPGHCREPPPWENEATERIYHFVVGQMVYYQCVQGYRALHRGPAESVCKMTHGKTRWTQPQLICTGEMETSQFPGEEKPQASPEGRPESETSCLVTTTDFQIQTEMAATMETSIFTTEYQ

T2: human IL-2Rγ (common cytokine receptor γ-chain) (human, UniProt P31785 23-262, limits assumed)
T2 construct: Recombinant protein coated on the plate or immobilised on a CM5 chip; also called hu IL-2R; CD132
T2 sequence: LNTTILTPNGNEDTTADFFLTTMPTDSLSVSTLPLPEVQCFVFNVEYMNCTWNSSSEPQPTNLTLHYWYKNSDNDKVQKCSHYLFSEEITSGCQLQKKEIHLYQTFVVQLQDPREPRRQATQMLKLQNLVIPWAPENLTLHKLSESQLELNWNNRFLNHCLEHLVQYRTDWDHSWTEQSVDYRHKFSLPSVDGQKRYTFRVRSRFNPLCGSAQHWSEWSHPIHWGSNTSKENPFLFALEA

B1: 10-MP05F03 (VHH)
VHH: QVQLVESGGGLVQAGGSLRLSCAASGIPFDNYAMGWFRQAPGKEREFVAARDLEGIITRYGDSVKGRFTISRGNAKNTVFLQMNSLKPEDTAVYYCAARDGGVVAGSRSSAQYNYWGQGTQVTVSS
notes: periplasmic extract; also called FJ1427_P035MP05F03
B2: 1-MP01H01 (VHH)
VHH: EVQLVESGGGLVQAGGSLRLSCAASGRTFRTHNMGWFRRAPGKEREFVAAISWNVDNTLYADSVKGRFTISRDNGRNMVYLQMNSLKPEDTAVYYCAADNIPLSSDVAATATEYDYWGQGTQVTVSS
notes: periplasmic extract; also called FJ1427_P035MP01H01
B3: FJ1427_P035MP01D08 (VHH)
VHH: B2 VHH with R27G, H32R, I51V, T58K, D62G, V107M, A108R, A109P
notes: periplasmic extract; also called clone nr; 60
B4: FJ1427_P035MP01G01 (VHH)
VHH: B2 VHH with E1Q, V5Q, G75D, Y95F, A108R, Y114F, D115G, Q122R
notes: periplasmic extract; also called clone nr
B5: FJ1427_P035MP01H11 (VHH)
VHH: B2 VHH with E1Q, G75D, Y95F, A108R, Y114F, D115G, Q122R
notes: periplasmic extract; also called clone nr; 88
B6: FJ1427_P035MP01E05 (VHH)
VHH: B2 VHH with E1Q, K43E, A50V, T58K, A108R, Y114F, D115G
notes: periplasmic extract; also called clone nr; 37
B7: 07-MP01G08 (VHH)
VHH: EVQLVESGGGLVQAGGSLRLSCAASGRAFSMYNMGWFRQAPGKEREFVAATGWSGANTPYADSVKGRFTISRDNTQNTVYLQMNSLKPEDTATYYCAADSIRLRSDVTRIPLEYDYWGQGTQVTVSS
notes: periplasmic extract; also called FJ1427_P035MP01G08
B8: FJ1427_P035MP01E10 (VHH)
VHH: QVQLVESGGGLVQAGDSLRLSCAASGRSFRNYILAWYRQAPGKEREFLAAISWLDGTLYADSVEDRFTISRDNPKNTVHLQMDSLKPEDTAVYYCAADRGPVRPVLAPDVDYWGQGTQVTVSS
notes: periplasmic extract; also called clone nr; 77
B9: FJ1427_P035MP01A01 (VHH)
VHH: B8 VHH with Q1E, S84N, T120S
notes: as for B4
B10: FJ1427_P035MP01B12 (VHH)
VHH: B8 VHH with V5Q, L58F, D61N, D65G, S84G, S122A
notes: periplasmic extract; also called clone nr; 90
B11: FJ1427_P035MP01E02 (VHH)
VHH: B8 VHH with S84N
notes: periplasmic extract; also called clone nr; 13
B12: FJ1427_P035MP01D11 (VHH)
VHH: B8 VHH with V2L, L34M
notes: periplasmic extract; also called clone nr; 84
B13: 3-MP01E03 (VHH)
VHH: QVQLVESGGGLVQAGGSLRLSCTASGRTLSSYSMAWFRQAADKGREFVTAISSSGVVTHVLDSVKGRFTISRDNAKNTVYLQMNSLQPEDTALYFCAGTASSYSTYEANYNYWGQGTLVTVSS
notes: periplasmic extract; also called FJ1427_P035MP01E03
B14: FJ1427_P035MP01H07 (VHH)
VHH: B13 VHH with Q1E, T23A, S31G, S33A, A40P, A41P, V56I, G98A, T105D
notes: periplasmic extract; also called clone nr; 56
B15: FJ1427_P035MP01D09 (VHH)
VHH: QVQLVESGGGLVQPGGSLRLSCAASGFTFSNNFMSWVRQAPGKGLEWVSTISYGGESTTYAESVKGRFTISRDNAKNTLYLQMNNLKPEDTAVYYCAKATSYDSIRSGSRGQGTQVTVSS
notes: periplasmic extract; also called clone nr; 68
B16: 2-MP01A02 (VHH)
VHH: B15 VHH with A24T, S30R
notes: periplasmic extract; also called FJ1427_P035MP01A02
B17: FJ1427_P035MP01F03 (VHH)
VHH: B15 VHH with I105V
notes: periplasmic extract; also called clone nr; 22
B18: 8-MP01C12 (VHH)
VHH: B15 VHH with A24T, W47F, S63A, V93I, D103T, S107G, G108A, S109P
notes: periplasmic extract; also called FJ1427_P035MP01C12
B19: FJ1427_P035MP01H05 (VHH)
VHH: B15 VHH with Q1E, G54F, E56D, Q112R
notes: periplasmic extract; also called clone nr; 40
B20: FJ1427_P035MP01E11 (VHH)
VHH: B15 VHH with G54F, E56D, T59R, A75E, Q112R
notes: periplasmic extract; also called clone nr; 85
B21: FJ1427_P035MP01G04 (VHH)
VHH: B15 VHH with G54F, E56D, T59R, A75E, Y80H, Q112R
notes: periplasmic extract; also called clone nr; 31
B22: FJ1427_P035MP01C03 (VHH)
VHH: B15 VHH with Q1E, A24T, S30R
notes: periplasmic extract; also called clone nr; 19
B23: FJ1427_P035MP01D03 (VHH)
VHH: B15 VHH with Q1E, A24T, S30R, K43E
notes: periplasmic extract; also called clone nr; 20
B24: FJ1427_P035MP05D06 (VHH)
VHH: QVQLVESGGGLVQAGDSLRLSCAASGFNFGWHAMGWFRQAPGKEREFVATITWTGRDTYYADSVRGRFTISKDNAKDTLFLQMNSLRPDDTGVYYCAKARERATWAYSEDDCDYWGQGTQVTVSS
notes: as for B4
B25: FJ1427_P035MP05H05 (VHH)
VHH: B24 VHH with D77N, N84S
notes: as for B4
B26: FJ1427_P035MP05F06 (VHH)
VHH: B24 VHH with Q1E
notes: periplasmic extract; also called clone nr; 430
B27: 13-MP05E12 (VHH)
VHH: B24 VHH with V5Q
notes: periplasmic extract; The row prints V ID 13-MP05E12 beside Clone ID ...MP05H07; clone nr; also called FJ1427_P035MP05H07
B28: 5-MP01F05 (VHH)
VHH: EVQLVESGGGLVQAGGSLRLSCAASIRAFTTWSMAWFRQAPGKEREYVARINVSGSVTYYADFVKGRFTISRDNAKKTMYLEMNNLKPEDTALYYCAADRTGVGTNDYNYWGQGTQVTVSS
notes: periplasmic extract; also called FJ1427_P035MP01F05
B29: 6-MP01G05 (VHH)
VHH: QVQLQESGGGLVQAGGSLRLSCAASGRTFSSYAMGWFRQAPGKEREFVAVISWNVDNTEYTDSVKGRFTISRDNDKNMVYLQMNSLKPEDTAVYYCAADSIPLSSDMSPTATEYGYWGQGTQVTVSS
notes: periplasmic extract; also called FJ1427_P035MP01G05
B30: FJ1427_P035MP01A11 (VHH)
VHH: QVQLVESGGGLVQPGGSLRLSCAASGRTFETHNMGWFRRAPGKEREFVAVISWNVDSTEYTDSVKGRFTISRDNDKNMVYLQMNSLKPEDTGVYYCAADNIPLSSDMSPTAAEYGYWGQGTQVTVSS
notes: periplasmic extract; also called clone nr; 81
B31: FJ1427_P035MP04A11 (VHH)
VHH: QVQLVESGGGLVQAGESLRLSCAASGPTASRVAVAWFRQVPGKEREFVAVVNRPGTMTKYADSVKGRFTISRDSAKNTVYLQMNSLKPEDTAVYYCAADSVPYGRPYYFQTSAGNYDYWGQGTQVTVSS
notes: VHH in periplasmic extract; also called clone nr
B32: FJ1427_P035MP01H08 (VHH)
VHH: B2 VHH with G10R, A14S, T28A, R30S, T58K, D62N, T69A, V107M, A108R, Y116V
notes: periplasmic extract; also called clone nr; 64
B33: FJ1427_P035MP01H10 (VHH)
VHH: QVQLVESGGGLVETGGSLRLSCAASGITFNDHTMAWFRQAPGKEREFVAARDWSDIITRYASSVKGRFTISRDNAGNTGFLQMNSLRPEDTAVYYCAAREGGVVAGVRSGAPYDYWGQGTQVTVSS
notes: periplasmic extract; also called clone nr; 80

Biological target: T1, human IL-2Rα
Assay: SPR, P.E. on immobilised antigen
Protocol: (§1) SPR was performed to determine dissociation rates using Biacore 3000 instrument (GE Healthcare). Briefly, human and mouse IL-2R proteins were immobilized on carboxylmethyl dextran sensor chip (CM5) at approximately 2500 RUs using amine coupling in acetate buffer (GE Healthcare). The VHH-containing P.E. were loaded with a flow rate of 30 uL/min and the off-rates were measured over a 120s period.

Binder | koff [s⁻¹]
B1 | 0.000639
B2 | 0.0229
B3 | 0.000842
B4 | 0.000414
B5 | 0.000725
B6 | 0.000498
B7 | 0.00184
B8 | 0.00119
B9 | 0.00112
B10 | 0.00144
B11 | 0.00128
B12 | 0.0027
B13 | 0.000799
B14 | 0.00112
B15 | 0.00212
B16 | 0.00153
B17 | 0.00327
B18 | 0.000383
B19 | 0.00276
B20 | 0.000704
B21 | 0.00107
B22 | 0.00144
B23 | 0.00189
B24 | 0.000677
B25 | 0.000591
B26 | 0.00067
B27 | 0.000742
B28 | 0.00042
B29 | 0.0206
B30 | 0.000778

Biological target: T2, human IL-2Rγ (common cytokine receptor …)
Assay: PE binding ELISA, periplasmic extract on coated protein
Procedure, shortened: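 Plates were coated overnight at 4° C with human or mouse IL-2R chain protein, and free sites blocked for 1 hour in 4% Marvel in PBS. Periplasmic extracts diluted 1:5 in 1% Marvel/PBS then bound for 1 hour, with specificity assessed from 450 nm absorbance relative to negative controls.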

Binder | OD (PE binding ELISA) [OD450 nm]
B31 | 0.593

Biological target: T1, human IL-2Rα
Assay: ELISA, P.E. on coated antigen
Protocol: In a binding ELISA, human or mouse IL-2Rα, IL-2Rβ and IL-2Rγ proteins were coated directly on maxisorp microtiter plates overnight at 4° C. Free binding sites were blocked using 4% Marvel in PBS for 1 hour. Next, 1:5 dilution of P.E. in 1% Marvel/PBS were added to wells and incubated for 1 hour. […] Binding specificity was determined based on O.D. at 450 nm values compared to negative controls.

Binder | OD (PE binding ELISA) [OD450 nm]
B1 | 2.46
B2 | 1.71
B3 | 2.62
B4 | 2.52
B5 | 2.62
B6 | 2.59
B32 | 2.6
B7 | 2.57
B8 | 2.78
B9 | 2.85
B10 | 3.05
B11 | 2.86
B12 | 3.21
B13 | 2.54
B14 | 2.14
B33 | 2.47

Binder | OD (PE binding ELISA) [OD450 nm]
B15 | 2.57
B16 | 2.62
B17 | 2.87
B18 | 2.53
B19 | 2.65
B20 | 2.69
B21 | 2.79
B22 | 2.84
B23 | 2.59
B24 | 2.51
B25 | 2.51
B26 | 2.51
B27 | 2.34
B28 | 2.62
B29 | 1.79
B30 | 2.81

Biological target: T2, human IL-2Rγ (common cytokine receptor …)
Assay: SPR off-rate ranking, periplasmic extract on immobilised protein
Protocol: as §1

Binder | koff [s⁻¹]
B31 | 0.0165
